Assay results as given in the RNAGym collection of RNA variant scans (doi:10.1073/pnas.2313332121).
Variants at the floor of the assay were thinned out.

B1: TPR 5TU (parent)
chain: GGAUCUUCUCGAUCUAACAAAAAAGACAAAUCUGCCACAAAGCUUGAGAGCAUCUUCGGAUGCAGAGGCGGCAGCCUUCGGUGGCGCGAUAGCGCCAACGUUCUCAACUAUGACACGCAAAACGCGUGCUCCGUUGAAUGGAGUUUAUCAUG

Variants of: B1
Assay: polymerase ribozyme fitness, log enrichment relative to wild type (log ratio); higher = more active; in vitro selection for triplet polymerase activity
In short: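 PCR was used to build mutant libraries for each subunit of a heterodimeric triplet polymerase ribozyme, which were then transcribed. A single in vitro selection round, in triplicate, used a frozen incubation at −7 °C and recovered extended constructs by gel excision, streptavidin beads and RT-PCR. Fitness is the logarithm of genotype enrichment relative to wild-type enrichment, averaged over replicates with inverse-variance weights. The logarithm is base 2, and after Illumina sequencing only genotypes with ≥10 input reads and ≥1 read per output were kept.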
For G59U G86U, the “polymerase ribozyme fitness (log ratio)” value was -3.85.
For C63U G80A A97G A110G, the “polymerase ribozyme fitness (log ratio)” value was -4.19.
With G58C C95U A150C the “polymerase ribozyme fitness (log ratio)” value was -3.72.
With G62A G81U C95A G126U the “polymerase ribozyme fitness (log ratio)” value was 0.493.
For G65U U78A, the “polymerase ribozyme fitness (log ratio)” value was -1.52.
For A60G A110G G136A, the “polymerase ribozyme fitness (log ratio)” value was -2.56.
In the case of G65A C114A, the “polymerase ribozyme fitness (log ratio)” value is reported as -3.39.
In the case of G65A A113G, the “polymerase ribozyme fitness (log ratio)” value is reported as -3.91.
With G59U A107U U127A the “polymerase ribozyme fitness (log ratio)” value was ≤ -4.2.
With A64G A91C A115G U145C the “polymerase ribozyme fitness (log ratio)” value was -3.96.
For G58U G126U A150C, the “polymerase ribozyme fitness (log ratio)” value was -4.03.
In the case of U61G C76A U78C G88C, the “polymerase ribozyme fitness (log ratio)” value is reported as ≤ -4.2.
In the case of G59A C103A A107U A110U U111A C118A A138G, the “polymerase ribozyme fitness (log ratio)” value is reported as ≤ -4.2.
In the case of G59A C76G G80C C116G C118G, the “polymerase ribozyme fitness (log ratio)” value is reported as ≤ -4.2.
For A60G G143U, the “polymerase ribozyme fitness (log ratio)” value was -1.77.
In the case of C63U C99G U151A, the “polymerase ribozyme fitness (log ratio)” value is reported as ≤ -4.2.
For G59C U78C C85A U144A A150U, the “polymerase ribozyme fitness (log ratio)” value was ≤ -4.2.
For U61G G84A U139C U145C, the “polymerase ribozyme fitness (log ratio)” value was ≤ -4.2.
With G59C A60G C85A the “polymerase ribozyme fitness (log ratio)” value was -1.88.
In the case of U61G A91C C93U C114A G126A U135G, the “polymerase ribozyme fitness (log ratio)” value is reported as ≤ -4.2.
For G58C G84U A97U, the “polymerase ribozyme fitness (log ratio)” value was -3.58.
In the case of G62U C72U C93U A122G, the “polymerase ribozyme fitness (log ratio)” value is reported as -3.31.
With A60C C85U the “polymerase ribozyme fitness (log ratio)” value was -1.01.
For A60C G71C C93G G140A U151C, the “polymerase ribozyme fitness (log ratio)” value was ≤ -4.2.
With A60G C96A A121U the “polymerase ribozyme fitness (log ratio)” value was -0.437.
With G59U C103U the “polymerase ribozyme fitness (log ratio)” value was -0.503.
With G59C G124A U151C the “polymerase ribozyme fitness (log ratio)” value was -3.78.
In the case of G59A A64U C85A G92A U144C, the “polymerase ribozyme fitness (log ratio)” value is reported as ≤ -4.2.
For G59C C95G C103U G126A, the “polymerase ribozyme fitness (log ratio)” value was -2.28.
In the case of G58U G59U C96G C123A C149U, the “polymerase ribozyme fitness (log ratio)” value is reported as -3.08.
With G59A C99G the “polymerase ribozyme fitness (log ratio)” value was -1.14.
With U61G C93G A98U A138C the “polymerase ribozyme fitness (log ratio)” value was ≤ -4.2.
With G59C G86U the “polymerase ribozyme fitness (log ratio)” value was -1.67.
With G62A C76A C79A C96A the “polymerase ribozyme fitness (log ratio)” value was ≤ -4.2.
With G62A G86A A122C the “polymerase ribozyme fitness (log ratio)” value was -1.02.
For G59A G83U G84A, the “polymerase ribozyme fitness (log ratio)” value was -1.23.
With G62C G92C the “polymerase ribozyme fitness (log ratio)” value was -3.09.
For G59U G94A C118U A150G, the “polymerase ribozyme fitness (log ratio)” value was -1.69.
With U61G C85A G143C the “polymerase ribozyme fitness (log ratio)” value was -3.43.
For G58U C95A C149U, the “polymerase ribozyme fitness (log ratio)” value was -0.828.
For G62C C72A A91G A98G C123U, the “polymerase ribozyme fitness (log ratio)” value was ≤ -4.2.
For C63U C85U, the “polymerase ribozyme fitness (log ratio)” value was -0.275.
In the case of G62C C79U G141U, the “polymerase ribozyme fitness (log ratio)” value is reported as ≤ -4.2.
In the case of G65A G136C A147C, the “polymerase ribozyme fitness (log ratio)” value is reported as -4.13.
In the case of U61G G92C C95U C105U A106C U109C A138G, the “polymerase ribozyme fitness (log ratio)” value is reported as ≤ -4.2.
In the case of G59A G83C A89U, the “polymerase ribozyme fitness (log ratio)” value is reported as -1.39.
For G58U A89G, the “polymerase ribozyme fitness (log ratio)” value was -0.659.
With A60G C85U U144G the “polymerase ribozyme fitness (log ratio)” value was 0.543.
In the case of A60U G86A A150C, the “polymerase ribozyme fitness (log ratio)” value is reported as ≤ -4.2.
In the case of G59C C75U A98U, the “polymerase ribozyme fitness (log ratio)” value is reported as -0.152.
For A60C A91U C93G A122C, the “polymerase ribozyme fitness (log ratio)” value was ≤ -4.2.
In the case of A60G A66C G94U C108U C125U U139C, the “polymerase ribozyme fitness (log ratio)” value is reported as -4.
With A60U C93A the “polymerase ribozyme fitness (log ratio)” value was -3.06.
For U61A G74A C76U C87A C108U A142U, the “polymerase ribozyme fitness (log ratio)” value was ≤ -4.2.
For G59U C95U, the “polymerase ribozyme fitness (log ratio)” value was -2.6.
In the case of U61A C69U A98U, the “polymerase ribozyme fitness (log ratio)” value is reported as -2.9.
With G62A A64C C85U C95G C105G A121U U134G U139G U151C the “polymerase ribozyme fitness (log ratio)” value was ≤ -4.2.
With G59A C85A A115G C123U the “polymerase ribozyme fitness (log ratio)” value was -2.65.
With A60G G94U the “polymerase ribozyme fitness (log ratio)” value was -0.467.
In the case of G58C G94A, the “polymerase ribozyme fitness (log ratio)” value is reported as -0.64.
For A60G C85A, the “polymerase ribozyme fitness (log ratio)” value was -0.96.
For G59A A106G U134A, the “polymerase ribozyme fitness (log ratio)” value was -2.03.
For G65A C85U A137U U139A G140A G152A, the “polymerase ribozyme fitness (log ratio)” value was -3.3.
With G62A C103U the “polymerase ribozyme fitness (log ratio)” value was -1.66.
In the case of G59C A60U G68A C75A C108A, the “polymerase ribozyme fitness (log ratio)” value is reported as -4.15.
For U61A C76A, the “polymerase ribozyme fitness (log ratio)” value was -3.6.
With U61A A107C G128U U139A the “polymerase ribozyme fitness (log ratio)” value was ≤ -4.2.
In the case of G62C G94A G133C G141U, the “polymerase ribozyme fitness (log ratio)” value is reported as -3.95.
In the case of U61A C99G, the “polymerase ribozyme fitness (log ratio)” value is reported as -3.23.
In the case of C63U G70C C87G A89G C96A G126C, the “polymerase ribozyme fitness (log ratio)” value is reported as ≤ -4.2.
For G58C U82A G143C, the “polymerase ribozyme fitness (log ratio)” value was -1.86.
For A60C G65U C132A, the “polymerase ribozyme fitness (log ratio)” value was -4.19.
With U61A A89C A107U G117U U144G U151A the “polymerase ribozyme fitness (log ratio)” value was ≤ -4.2.
With G62C C76U U139G the “polymerase ribozyme fitness (log ratio)” value was -3.09.
With G59C C85G the “polymerase ribozyme fitness (log ratio)” value was -1.64.
In the case of G59U A60C G83A C116U C118G, the “polymerase ribozyme fitness (log ratio)” value is reported as -2.5.
For G59U A120G, the “polymerase ribozyme fitness (log ratio)” value was -0.485.
In the case of G59U G81A C85G A106C, the “polymerase ribozyme fitness (log ratio)” value is reported as -3.51.
In the case of U61A C79A G83C, the “polymerase ribozyme fitness (log ratio)” value is reported as ≤ -4.2.
With G59C C87U U102G C132U U145G the “polymerase ribozyme fitness (log ratio)” value was ≤ -4.2.
For G59A G92C, the “polymerase ribozyme fitness (log ratio)” value was -2.78.
In the case of G58C G83A C93U, the “polymerase ribozyme fitness (log ratio)” value is reported as -2.03.
With C63U C69A G80A C85U G94C C99A the “polymerase ribozyme fitness (log ratio)” value was -3.32.
